Data: US9040054B2

Target: serum IgE of birch pollen allergic (Bet v 1 allergic) patients
Test: ELISA inhibition: BM4 as inhibitor in serial dilutions, Bet v 1a immobilized at 200 ng/well, 5 sera

- fold reduced patients' IgE binding capacity compared to Bet v 1a: 100 to 1000 fold
B1: BM4 (protein)
chain: GVFNYETETTSVIPAARLFKAFILDGDNLFPKVAPQAISSVENIEGNGGPGTIKKISFPEGFPFKYVKDRVDEVDHTNFKYNYSVIEGGPIGDTLEKISNEIKIVATPSGSTIKSISNKYHTKGDHEVKAEQVKASKEMGETLLRAVESYLLAHSDAYN
